Measured values from patent publication US20220178930A1.
“And” between values parts separate entries of the source, which are not always exact repeats. Equal values may be shown once.

Assays:
[1] = target: Galectin-9 (human) (UniProt O00182); assay: flow cytometry, EPCAM+ tumor cells, S3 organoid fraction, Pancreas NET
[2] = target: Galectin-9 (human) (UniProt O00182); assay: flow cytometry, EPCAM+ tumor cells, S2 single cell fraction, CRC
[3] = target: Galectin-9 (human) (UniProt O00182); assay: flow cytometry, EPCAM+ tumor cells, S3 organoid fraction, PDA
[4] = target: Galectin-9 (human) (UniProt O00182); assay: flow cytometry, CD3+ T cells, S3 organoid fraction, CRC liver metastasis
[5] = target: Galectin-9 (human) (UniProt O00182); assay: flow cytometry, EPCAM+ tumor cells, S3 organoid fraction, CRC liver metastasis
[6] = target: Galectin-9 (human) (UniProt O00182); assay: flow cytometry, CD11b+ myeloid cells, S3 organoid fraction, PDA
[7] = target: Galectin-9 (human) (UniProt O00182); assay: flow cytometry, CD11b+ myeloid cells, S2 single cell fraction, CRC
[8] = target: Galectin-9 (human) (UniProt O00182); assay: flow cytometry, EPCAM+ tumor cells, S3 organoid fraction, Liver NET
[9] = target: Galectin-9 (human) (UniProt O00182); assay: flow cytometry, EPCAM+ tumor cells, S2 single cell fraction, PDA
[10] = target: Galectin-9 (human) (UniProt O00182); assay: flow cytometry, EPCAM+ tumor cells, S2 single cell fraction, CRC liver metastasis
[11] = target: Galectin-9 (human) (UniProt O00182); assay: flow cytometry, CD11b+ myeloid cells, S3 organoid fraction, Pancreas NET
[12] = target: Galectin-9 (human) (UniProt O00182); assay: flow cytometry, EPCAM+ tumor cells, S3 organoid fraction, CRC
[13] = target: Galectin-9 (human) (UniProt O00182); assay: flow cytometry, CD3+ T cells, S3 organoid fraction, Pancreas NET
[14] = target: Galectin-9 (human) (UniProt O00182); assay: flow cytometry, EPCAM+ tumor cells, S2 single cell fraction, Liver NET
[15] = target: Galectin-9 (human) (UniProt O00182); assay: flow cytometry, CD3+ T cells, S3 organoid fraction, CRC
[16] = target: Galectin-9 (human) (UniProt O00182); assay: flow cytometry, CD11b+ myeloid cells, S3 organoid fraction, CRC
[17] = target: Galectin-9 (human) (UniProt O00182); assay: flow cytometry, EPCAM+ tumor cells, S2 single cell fraction, Pancreas NET
[18] = target: Galectin-9 (human) (UniProt O00182); assay: flow cytometry, CD11b+ myeloid cells, S2 single cell fraction, PDA
[19] = target: Galectin-9 (human) (UniProt O00182); assay: flow cytometry, CD3+ T cells, S2 single cell fraction, CRC liver metastasis
[20] = target: Galectin-9 (human) (UniProt O00182); assay: flow cytometry, CD3+ T cells, S2 single cell fraction, Pancreas NET
[21] = target: Galectin-9 (human) (UniProt O00182); assay: flow cytometry, CD11b+ myeloid cells, S2 single cell fraction, CRC liver metastasis
[22] = target: Galectin-9 (human) (UniProt O00182); assay: flow cytometry, CD3+ T cells, S2 single cell fraction, PDA
[23] = target: Galectin-9 (human) (UniProt O00182); assay: flow cytometry, CD3+ T cells, S3 organoid fraction, PDA
[24] = target: Galectin-9 (human) (UniProt O00182); assay: flow cytometry, CD11b+ myeloid cells, S3 organoid fraction, HCC
[25] = target: Galectin-9 (human) (UniProt O00182); assay: flow cytometry, EPCAM+ tumor cells, S3 organoid fraction, HCC
[26] = target: Galectin-9 (human) (UniProt O00182); assay: flow cytometry, CD11b+ myeloid cells, S3 organoid fraction, CRC liver metastasis
[27] = target: Galectin-9 (human) (UniProt O00182); assay: flow cytometry, CD11b+ myeloid cells, S2 single cell fraction, Pancreas NET
[28] = target: Galectin-9 (human) (UniProt O00182); assay: flow cytometry, CD3+ T cells, S2 single cell fraction, CRC
[29] = target: Galectin-9 (human) (UniProt O00182); assay: flow cytometry, CD3+ T cells, S3 organoid fraction, HCC

Sequence of Galectin-9 (human) (O00182 whole entry): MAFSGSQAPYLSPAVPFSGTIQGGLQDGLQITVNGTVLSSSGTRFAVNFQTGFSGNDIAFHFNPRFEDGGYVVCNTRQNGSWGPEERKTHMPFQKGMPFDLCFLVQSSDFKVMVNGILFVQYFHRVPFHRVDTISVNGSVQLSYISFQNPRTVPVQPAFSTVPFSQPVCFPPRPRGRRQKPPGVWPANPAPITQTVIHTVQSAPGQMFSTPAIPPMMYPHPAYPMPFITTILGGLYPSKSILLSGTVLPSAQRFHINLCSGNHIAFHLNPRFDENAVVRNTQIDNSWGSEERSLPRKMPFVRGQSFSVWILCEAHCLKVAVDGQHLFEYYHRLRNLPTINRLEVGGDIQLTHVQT

Substance: Fab isotype
- % Gal9 expression based on staining [1]: 4.19%
- % Gal9 expression based on staining [2]: 0.64% and 3.97%
- % Gal9 expression based on staining [3]: 0.17% and 0.94%
- % Gal9 expression based on staining [4]: 0%
- % Gal9 expression based on staining [5]: 0.06%
- % Gal9 expression based on staining [6]: 3.83% and 0.54%
- % Gal9 expression based on staining [7]: 2.86% and 5.84%
- % Gal9 expression based on staining [8]: 0.02%
- % Gal9 expression based on staining [9]: 0.15% and 0.88%
- % Gal9 expression based on staining [10]: 0.15%
- % Gal9 expression based on staining [11]: 1.87%
- % Gal9 expression based on staining [12]: 0.21% and 2.27% and 0.55%
- % Gal9 expression based on staining [13]: 4.96%
- % Gal9 expression based on staining [14]: 0.45%
- % Gal9 expression based on staining [15]: 0% and 15.3% and 0.87%
- % Gal9 expression based on staining [16]: 0.38% and 11.8% and 2.4%
- % Gal9 expression based on staining [17]: 2.41%
- % Gal9 expression based on staining [18]: 1.19% and 0%
- % Gal9 expression based on staining [19]: 0.56%
- % Gal9 expression based on staining [20]: 32.2%
- % Gal9 expression based on staining [21]: 1.2%
- % Gal9 expression based on staining [22]: 0% and 0.52%
- % Gal9 expression based on staining [23]: 0% and 0.59%
- % Gal9 expression based on staining [24]: 1.72%
- % Gal9 expression based on staining [25]: 5.84%
- % Gal9 expression based on staining [26]: 1.5%
- % Gal9 expression based on staining [27]: 16.2%
- % Gal9 expression based on staining [28]: 2.5% and 1.59%
- % Gal9 expression based on staining [29]: 1.14%
